Experimental data published in patent US20040110688.

target: factor VIIIa (UniProt P00451)
Sequence (P00451 other isoform, or with tags, fused parts or gaps): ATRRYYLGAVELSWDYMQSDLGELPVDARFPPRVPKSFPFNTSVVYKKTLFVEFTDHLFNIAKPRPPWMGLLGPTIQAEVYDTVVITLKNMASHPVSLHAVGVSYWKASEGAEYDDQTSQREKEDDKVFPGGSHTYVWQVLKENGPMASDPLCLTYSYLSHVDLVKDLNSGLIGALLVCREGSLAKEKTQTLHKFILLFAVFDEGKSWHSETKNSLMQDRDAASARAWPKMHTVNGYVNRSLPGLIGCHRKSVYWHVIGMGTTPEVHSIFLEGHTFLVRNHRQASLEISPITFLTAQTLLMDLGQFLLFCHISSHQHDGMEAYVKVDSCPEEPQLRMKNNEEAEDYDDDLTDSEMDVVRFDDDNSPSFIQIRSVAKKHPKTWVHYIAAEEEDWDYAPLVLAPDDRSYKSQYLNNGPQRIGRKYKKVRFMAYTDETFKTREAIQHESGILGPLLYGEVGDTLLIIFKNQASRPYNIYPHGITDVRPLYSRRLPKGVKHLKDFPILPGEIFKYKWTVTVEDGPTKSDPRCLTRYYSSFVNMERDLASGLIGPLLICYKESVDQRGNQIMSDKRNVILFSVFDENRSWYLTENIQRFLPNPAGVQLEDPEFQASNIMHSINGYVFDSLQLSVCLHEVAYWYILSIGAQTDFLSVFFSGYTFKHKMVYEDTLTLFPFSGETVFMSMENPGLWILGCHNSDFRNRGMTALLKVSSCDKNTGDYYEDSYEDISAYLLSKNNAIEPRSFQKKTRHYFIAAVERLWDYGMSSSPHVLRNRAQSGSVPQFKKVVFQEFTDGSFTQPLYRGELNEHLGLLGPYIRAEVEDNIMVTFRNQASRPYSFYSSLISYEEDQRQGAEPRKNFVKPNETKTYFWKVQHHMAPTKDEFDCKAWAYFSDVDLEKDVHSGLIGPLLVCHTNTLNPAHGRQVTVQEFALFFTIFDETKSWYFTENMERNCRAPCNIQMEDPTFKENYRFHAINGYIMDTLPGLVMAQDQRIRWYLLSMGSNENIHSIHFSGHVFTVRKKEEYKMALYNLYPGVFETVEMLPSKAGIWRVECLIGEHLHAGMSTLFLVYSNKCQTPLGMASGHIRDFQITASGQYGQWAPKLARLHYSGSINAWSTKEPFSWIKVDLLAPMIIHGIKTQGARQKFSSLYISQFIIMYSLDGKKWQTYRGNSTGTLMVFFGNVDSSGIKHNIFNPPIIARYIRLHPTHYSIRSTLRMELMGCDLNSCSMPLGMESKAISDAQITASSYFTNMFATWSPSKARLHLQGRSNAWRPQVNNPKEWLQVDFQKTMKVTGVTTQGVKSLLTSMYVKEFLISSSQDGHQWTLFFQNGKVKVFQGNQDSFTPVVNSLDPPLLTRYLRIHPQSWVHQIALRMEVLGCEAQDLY

Substance	X-activation rate, PL-minus system (14 nM VIIIa, 400 nM X)	X-activation rate, PL-plus system (70 pM VIIIa, 0.5 nM IXa, 15 nM X)	rate of factor X activation with phospholipid, factor VIIIa increased from 70 pM to 14 nM
IXaD332Y	NM	NM	IXaD332Y ~4.1 nM/min
IXaL330I	0.94 nM/min	0.95 nM/min	
IXaL337I	NM	NM	IXaL337I ~3.2 nM/min
IXaPCEGF1	2.71 nM/min	NM	
IXaQ50P	2.81 nM/min	NM	
IXaR333L	NM	NM	IXaP333L ~2.7 nM/min
IXaR333Q	NM	NM	IXaR333Q ~2.4 nM/min
IXaR338Q	2.22 nM/min	2.53 nM/min	
IXaT335A	1.83 nM/min	1.92 nM/min	
